Data set [1] concerns MS2 coat protein. The data set can be described thus: apparent KD of MS2 coat protein, switch OFF state (with FMN for OFF switches, without FMN for ON switches); designed switch direction (-1 OFF switch, 1 ON switch): -1; higher = weaker reporter binding. The settings on record: FMN input: 0 or 200 uM; Eterna round: R93 (includes R88 designs). In a few lines: (§1)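 For every design, apparent KD is the median of normalised binding-curve fits from its clusters. The RNA switches were transcribed on-chip from Illumina sequencing clusters and titrated with SNAP-549-labelled MS2 coat protein (twofold steps, 0.7 or 1.5 nM to 3 µM; 0.8–1.5 h to 10–20 min per step). Titrations used 100 mM Tris-HCl pH 7.5, 80 mM KCl, 4 mM MgCl2, without or with constant ligand.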

Data set [2] has as its system MS2 coat protein. The data set can be described thus: apparent KD of MS2 coat protein, switch ON state; designed switch direction (-1 OFF switch, 1 ON switch): -1; higher = weaker reporter binding. The settings on record: FMN input: 0 or 200 uM; Eterna round: R93 (includes R88 designs). An outline of the steps:
as §1

Consider 40 sequences from the supplement of paper PMC9170038.

Turning to “AAGAACAUAGGAUAUACAAAAUAAAAGAAAAGAAAGAAAGAACAUGAGGAUCACCCAUGUAGAAGGAUGAAGAA [Khakaure Senusret III]”, the “apparent KD of MS2 coat protein” value in the data set with MS2 coat protein [1] turned out to be 24.4 nM; in the data set with MS2 coat protein [2] it was 39 nM.

Take “AAGAACCGAGGAUAUACAUGAAAGAAAGAAAAGAAAAGAAAACAUGAGGAUCACCCAUGUAGAAGGCGGAAGAA [EteRNA is fun!]”: the “apparent KD of MS2 coat protein” value with MS2 coat protein [1] is 35.3 nM; with MS2 coat protein [2], 27.4 nM.

For the sequence “AAGAACCUAGGAUAUACAUGAAAGAAAGAAAAGAAAAGAAAACAUGAGGAUCACCCAUGUAGAAGGAGGUAGAA [EteRNA is fun!]”, the “apparent KD of MS2 coat protein” value came out at 50.5 nM in the data set with MS2 coat protein [1] and 26.7 nM with MS2 coat protein [2].

Take “AAGAACCUAGGAUAUACAUGAGGAUCACCCAUGUAAAAGAAAGAAAAGGGAAAGAAAAGUAGAAGGAGGAAGAA [Menmire-setpenre Amenmesse]”: the “apparent KD of MS2 coat protein” value is 22.2 nM with MS2 coat protein [1] and 18.4 nM in the data set on MS2 coat protein [2].

For “AAGAACGAAGGAUAUACAUGAAAGAAAGAAAAGAAAAGAAAACAUGAGGAUCACCCAUGUAGAAGGUCGUAGAA [EteRNA is fun!]”, the “apparent KD of MS2 coat protein” value in the data set with MS2 coat protein [1] stood at 28.8 nM; with MS2 coat protein [2] it was 26.2 nM.

On to “AAGAACGGAGGAUAUACAAAAUAAAAGAAAAGAAAGAAAGAACAUGAGGAUCACCCAUGUAGAAGGUCGAAGAA [Seth Meribre]”, for which the “apparent KD of MS2 coat protein” value is 20.8 nM in the data set on MS2 coat protein [1] and 14.9 nM in the data set on MS2 coat protein [2].

As to “AAGAACGUAGGAUAUACAUGAGGAUCACCCAUGUAAAAGAAAGAAAAGGGAAAGAAAAGUAGAAGGACGAAGAA [Usermaatre-setpenre Ramesses II]”, the “apparent KD of MS2 coat protein” value is 34.4 nM with MS2 coat protein [1] and 42.1 nM with MS2 coat protein [2].

For the sequence “AAGAACUAAGGAUAUACAAGGAAGAAAGAAAAGAAAAGAAAACAUGAGGAUCACCCAUGUAGAAGGUAGUAGAA [EteRNA is fun!]”, the “apparent KD of MS2 coat protein” value was 24.7 nM in the data set on MS2 coat protein [1] and 28.8 nM in the data set on MS2 coat protein [2].

As for “AAGAACUGAGGAUAUGCAAAAGGGAAAGCUGAUCCUCAUCUACAUGAGGAUCACCCAUGUAGAAGGCGGGAAAU [Aveerve]”, the “apparent KD of MS2 coat protein” value in the data set with MS2 coat protein [1] came out at 47.7 nM; in the data set on MS2 coat protein [2], 63.4 nM.

Consider “AAGAACUUAGGAUAUACAAAAUAAAAGAAAAGAAAGAAAGAACAUGAGGAUCACCCAUGUAGAAGGGAGAAGAA [Nimaatre Amenemhat III]”, for which the “apparent KD of MS2 coat protein” value with MS2 coat protein [1] amounted to 29.8 nM; in the data set on MS2 coat protein [2] it was 55.9 nM.

On to “AAGAAGAGAGGAUAUACAUGAAAGAAAGAAAAGAAAAGAAAACAUGAGGAUCACCCAUGUAGAAGGCUCAAGAA [EteRNA is fun!]”, for which the “apparent KD of MS2 coat protein” value was found to be 40.6 nM with MS2 coat protein [1] and 39.4 nM in the data set on MS2 coat protein [2].

As for “AAGAAGAGAGGAUAUACUAAAGAAAUGAAAAGAAAGAAAGAACAUGAGGAUCACCCAUGUAGAAGGCUCAAGAA [Snaaib]”, the “apparent KD of MS2 coat protein” value was 18.1 nM in the data set on MS2 coat protein [1] and 27.8 nM with MS2 coat protein [2].

As for “AAGAAGAGAGGAUAUACUAAAGAAAUGAAAAGAAAUAAAGAACAUGAGGAUCACCCAUGUAGAAGGCUCAAGAA ['Ammu Ahotepre]”, the figures for the “apparent KD of MS2 coat protein” value with MS2 coat protein [1] and in the data set on MS2 coat protein [2] were 21 nM and 25.5 nM, respectively.

Consider “AAGAAGCAAGGAUAUACAAAAUAAAAGAAAAGAAAGAAAGAACAUGAGGAUCACCCAUGUAGAAGGUGCAAGAA [Djedkheperew]”, for which the “apparent KD of MS2 coat protein” value was 31 nM in the data set with MS2 coat protein [1] and 31.1 nM in the data set with MS2 coat protein [2].

For “AAGAAGCUAGGAUAUACAAAAUAAAAGAAAAGAAAGAAAGAACAUGAGGAUCACCCAUGUAGAAGGAGCAAGAA [Sebkay]”, the “apparent KD of MS2 coat protein” value stood at 21.4 nM with MS2 coat protein [1] and 31.3 nM with MS2 coat protein [2].

With “AAGAAGGAAGGAUAUACAAAAUAAAAGAAAAGAAAGAAAGAACAUGAGGAUCACCCAUGUAGAAGGUCCAAGAA [Sedjefakare]”, the figures for the “apparent KD of MS2 coat protein” value in the data set with MS2 coat protein [1] and in the data set on MS2 coat protein [2] were 34.7 nM and 29.8 nM, respectively.

Turning to “AAGAAGGCAGGAUAUACAUGAGGAUCACCCAUGUAAAAGAAAGAAGGGAAAGAGAAAAGUAGAAGGGCCAAGAA [Hedjkheperre-setpenre Takelot II]”, the “apparent KD of MS2 coat protein” value in the data set with MS2 coat protein [1] worked out at 68.4 nM; in the data set on MS2 coat protein [2] it was 43.8 nM.

Turning to “AAGAAGGGAGGAUAUACAAAAUAAAAGAAAAGAAAGAAAGAACAUGAGGAUCACCCAUGUAGAAGGCCCAAGAA [Iufni]”, the entries for the “apparent KD of MS2 coat protein” value with MS2 coat protein [1] and with MS2 coat protein [2] were 21.2 nM and 22.3 nM, respectively.

Consider “AAGAAGGGAGGAUAUACAUGAGGAUCACCCAUGUAAAAGAAAGAAAAGGGAAAGAAAAGUAGAAGGCCCAAGAA [Seqenenre Tao]”, for which the “apparent KD of MS2 coat protein” value was 40.2 nM with MS2 coat protein [1] and 36.9 nM in the data set on MS2 coat protein [2].

As to “AAGAAGGUAGGAUAUACUAAAGAAAUGAAAAGAAAUAAAGAACAUGAGGAUCACCCAUGUAGAAGGACCAAGAA [Webenre]”, the “apparent KD of MS2 coat protein” value in the data set on MS2 coat protein [1] was 32.2 nM; in the data set on MS2 coat protein [2], 25.8 nM.

For “AAGAAGGUAGGAUAUACUAGGGAAACUAAUGCAAAGAUAAAACAUGAGGAUCACCCAUGUAGAAGGGCCAGAAA [JR_Exc002_Sub017]”, the “apparent KD of MS2 coat protein” value in the data set on MS2 coat protein [1] amounted to 65.5 nM; in the data set on MS2 coat protein [2], 40.8 nM.

In the case of “AAGAAGUAAGGAUAUGCUGCUCGUCACAAAAGUGAUGAGUAGCAGAAGGUACAUGAGGAUCACCCAUGUAAAGA [JL eternac mod 3]”, the figures for the “apparent KD of MS2 coat protein” value with MS2 coat protein [1] and in the data set on MS2 coat protein [2] were 20.3 nM and 26 nM, respectively.

For “AAGAAGUCAGGAUAUCGAAGACUGUCGAAAAGACAGUCGAACGAGAAGGGACAUGAGGAUCACCCAUGUGGAAG [Mat - Exaclusion 4 - Eli mod - D72]”, the “apparent KD of MS2 coat protein” value in the data set with MS2 coat protein [1] turned out to be 321 nM; with MS2 coat protein [2], 99.2 nM.

In the case of “AAGAAGUCAGGAUAUGCCAGAGAUCACGAAAGUGAUGAGUAGCAGAAGGGACAUGAGGAUCACCCAUGUAAAGA [Opal 6]”, the entries for the “apparent KD of MS2 coat protein” value with MS2 coat protein [1] and in the data set with MS2 coat protein [2] were 46.5 nM and 48.2 nM, respectively.

Take “AAGAAGUCAGGAUAUGGAAAAGAAAAGAAAAGAAAAGAAAACCAGAAGGGACAUGAGGAUCACCCAUGUAAGAA [Xerxes I the Great]”: the “apparent KD of MS2 coat protein” value with MS2 coat protein [1] amounted to 28.1 nM; with MS2 coat protein [2] it was 44.5 nM.

In the case of “AAGAAGUGAGGAUAUACAUGAGGAUCACCCAUGUAAAAGAAAGAAAGGGAAAAGAAAAGUAGAAGGCGCAAGAA [Aakheperre Shoshenq V]”, the “apparent KD of MS2 coat protein” value worked out at 44.7 nM with MS2 coat protein [1] and 34.1 nM in the data set with MS2 coat protein [2].

Take “AAGAAGUGAGGAUAUCGAAGACUGUCGAAAAGACAGUCGAACGAGAAGGCACAUGAGGAUCACCCAUGUAAGAA [Marsupial]”: the “apparent KD of MS2 coat protein” value in the data set on MS2 coat protein [1] was 45 nM; in the data set with MS2 coat protein [2], 34.4 nM.

With “AAGAAGUGAGGAUAUCGAAGACUGUCGAAAAGACAGUCGAACGAGAAGGCACAUGAGGAUCACCCAUGUGAAAA [Marsurpial 65% 4]”, the “apparent KD of MS2 coat protein” value was found to be 33.1 nM with MS2 coat protein [1] and 22.1 nM in the data set on MS2 coat protein [2].

Take “AAGAAGUUAGGAUAUGCUGCUCGUCACAAAAGUGAUGAGUAGCAGAAGGGACAUGAGGAUCACCCAUGUAAAGA [JL eternac mod 5]”: the “apparent KD of MS2 coat protein” value came to 24.1 nM with MS2 coat protein [1] and 36.7 nM with MS2 coat protein [2].

On to “AAGAAUCGAGGAUAUACAUGAAAGAAAGAAAAGAAAAGAAAACAUGAGGAUCACCCAUGUAGAAGGCGAUAGAA [EteRNA is fun!]”, for which the “apparent KD of MS2 coat protein” value in the data set with MS2 coat protein [1] came out at 28.7 nM; with MS2 coat protein [2], 21.3 nM.

Take “AAGAAUGCAGGAUAUACAAAAUAAAAGAAAAGAAAGAAAGAACAUGAGGAUCACCCAUGUAGAAGGGCGAAGAA [Sewadjkare Hori]”: the “apparent KD of MS2 coat protein” value in the data set with MS2 coat protein [1] was 34.4 nM; in the data set with MS2 coat protein [2] it was 44.4 nM.

For the sequence “AAGAAUGCAGGAUAUACAUGAGGAUCACCCAUGUAAAAGAAAGAAGGGAAAGAGAAAAGUAGAAGGGCAAAGAA [Bakare Tantamani]”, the entries for the “apparent KD of MS2 coat protein” value with MS2 coat protein [1] and with MS2 coat protein [2] were 47.2 nM and 36 nM, respectively.

As to “AAGAAUGGAGGAUAUACAAAAUAAAAGAAAAGAAAGAAAGAACAUGAGGAUCACCCAUGUAGAAGGCCGAAGAA [Mersekhemre Ined]”, the “apparent KD of MS2 coat protein” value turned out to be 37.3 nM in the data set on MS2 coat protein [1] and 14.6 nM in the data set with MS2 coat protein [2].

For “AAGAAUGGAGGAUAUACAUGAGGAUCACCCAUGUAAAAGAAAGAAAGGGAAAAGAAAAGUAGAAGGCCAAAGAA [Hedjkheperre Harsiese]”, the “apparent KD of MS2 coat protein” value turned out to be 42.1 nM in the data set with MS2 coat protein [1] and 46.6 nM in the data set on MS2 coat protein [2].

Take “AAGAAUUGAGGAUAUACAAGGAAGAAAGAAAAGAAAAGAAAACAUGAGGAUCACCCAUGUAGAAGGCAAUAGAA [EteRNA is fun!]”: the “apparent KD of MS2 coat protein” value in the data set on MS2 coat protein [1] worked out at 12.5 nM; in the data set on MS2 coat protein [2], 23.5 nM.

Turning to “AAGACUAGAGGAUAUACAUGAGGAUCACCCAUGUAACUGUCAGAAAACUGACGGAGAAGUAGAAGGCUAGUCAA [Mat - Exclusion 3 - JL mod - D86]”, the “apparent KD of MS2 coat protein” value stood at 21.2 nM in the data set with MS2 coat protein [1] and 16.9 nM with MS2 coat protein [2].

In the case of “AAGACUAGAGGAUAUACAUGAGGAUCACCCAUGUAACUGUCAGGUGACUGACGGAGAAGUAGAAGGCUAGUCAA [Mat - Exclusion 3 - JL mod - D83]”, the “apparent KD of MS2 coat protein” value with MS2 coat protein [1] came out at 19.9 nM; in the data set with MS2 coat protein [2], 14.6 nM.

Regarding “AAGACUAGAGGAUAUACAUGAGGAUCACCCAUGUAACUGUCAGGUGACUGACGGAGAUGUAGAAGGCUAGUCAA [Wider Swing]”, the “apparent KD of MS2 coat protein” value with MS2 coat protein [1] is 41.2 nM; in the data set with MS2 coat protein [2] it was 17.2 nM.

Take “AAGAGGCGAGGAUAUACAUGAGGAUCACCCAUGUAAUCCGGAUAAGGAAGCAUGUCGUGUAGAAGGUGCCAUGA [water's exclusion 3 last]”: the “apparent KD of MS2 coat protein” value in the data set on MS2 coat protein [1] was determined as 20.2 nM; in the data set with MS2 coat protein [2], 19.2 nM.

With “AAGAGUACAGGAUAUACAUGAGGAUCACCCAUGUGAAAAUUAAGUGGCGUACAACAAAGUAGAAGGGUACUGGA [Ruby 51]”, the results for the “apparent KD of MS2 coat protein” value in the data set on MS2 coat protein [1] and in the data set with MS2 coat protein [2] were 41.7 nM and 21.9 nM, respectively.
